According to patent CN115785273A (DONGGUAN PENGZHI BIOTECHNOLOGY CO LTD, dated 2023):
Blank lines part the entries; values can stand above or below the molecule they belong to.

Target: T1, PG I蛋白(fitzgerald，30R-AP038) (UniProt P0DJD8 16-388)
T1 construct: Commercial antigen; Pepsinogen I is a group of isozymogens (PGA3/PGA4/PGA5); also called 胃蛋白酶原I; HPG I
Test: BLI, AMC sensors, antibody captured at 10 μg/mL, PG I protein in serial dilution in PBST

T1 sequence (P0DJD8 16-388): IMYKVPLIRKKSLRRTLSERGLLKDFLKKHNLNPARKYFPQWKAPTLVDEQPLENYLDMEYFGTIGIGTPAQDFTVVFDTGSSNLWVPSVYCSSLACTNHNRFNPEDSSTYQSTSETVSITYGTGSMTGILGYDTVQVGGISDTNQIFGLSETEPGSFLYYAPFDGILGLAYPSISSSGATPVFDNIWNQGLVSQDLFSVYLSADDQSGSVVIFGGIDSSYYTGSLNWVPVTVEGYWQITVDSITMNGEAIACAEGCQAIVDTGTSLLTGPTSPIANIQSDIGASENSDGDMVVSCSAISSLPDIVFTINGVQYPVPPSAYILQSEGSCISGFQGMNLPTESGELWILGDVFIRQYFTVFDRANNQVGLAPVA

- Kd: 0.297 nM
- koff: 0.000273 s⁻¹
- kon: 919000 M⁻¹ s⁻¹
Molecule: 对照抗体 (antibody)

- Kd: 0.0309 nM
- koff: 2.85e-05 s⁻¹
- kon: 921000 M⁻¹ s⁻¹
B1: Anti-HPG I 8C20单克隆抗体 (antibody, V domains shown)
VH: QVQLQQPGAELVRPGASVKLSCKASDYTFTSYWMNWVKQRPEQGLEWIGRIDPYDSETHYNQKFKDKAILTVDKSSSTAYMQLSSLTSEDSAVYYCARFSMVVAVYAMDYWGQGTSVTVSS
VL: DIQMTQSPASLSASVGETVTITCRASGNIHNYLAWFQQKQGKSPQILVYYAKTLADGVPSRFSGSGSGTQFSLKINSLQPEDFGSYYCQHFWSTPWTFGGGTKLEIK
